Test results reported in the supplement of paper PMC9112550, “Optimization of the antimicrobial peptide Bac7 by deep mutational scanning” (BMC Biology, 2022).

system: Escherichia coli TOP10; experiment: shrunken log2 fold change of peptide-encoding DNA abundance (4.5 h post-induction vs induction); higher = less antimicrobial activity (less host growth inhibition); conditions: time post-induction: 4.5 h; library: site-saturation at positions 5, 18, 19, 20
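Note: peptides expressed intracellularly from a pBAD plasmid library in pooled LB shake-flask culture, induced with 0.3% L-arabinose, DNA abundance read by NGS, three biological replicates, DESeq2 with apeglm shrinkage.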

Question: With RRIRGRPPRLPRPRPRPGHEPRP as the sequence, how does the “shrunken log2 fold change” value read?
Answer: 0.202

Question: Which “shrunken log2 fold change” value does the source give for RRIRNRPPRLPRPRPRPLWSPRP here?
Answer: -0.0388

Question: Which “shrunken log2 fold change” value does the source give for RRIRARPPRLPRPRPRPAVIPRP here?
Answer: -0.178

Question: How did the “shrunken log2 fold change” value turn out when RRIRDRPPRLPRPRPRPSCFPRP was run?
Answer: 0.126

Question: RRIRGRPPRLPRPRPRPINEPRP was tested. Which “shrunken log2 fold change” value did it give?
Answer: 0.0939

Question: For RRIRYRPPRLPRPRPRPSFEPRP, which “shrunken log2 fold change” value is on record?
Answer: -0.689

Question: How did the “shrunken log2 fold change” value turn out when RRIRFRPPRLPRPRPRPAERPRP was run?
Answer: 0.0603

Question: RRIRIRPPRLPRPRPRPAVDPRP was tested. Which “shrunken log2 fold change” value did it give?
Answer: -0.0902

Question: Which “shrunken log2 fold change” value does the source give for RRIRLRPPRLPRPRPRPAINPRP here?
Answer: -0.157

Question: Which “shrunken log2 fold change” value does the source give for RRIRERPPRLPRPRPRPHCPPRP here?
Answer: -0.0673

Question: How did the “shrunken log2 fold change” value turn out when RRIRERPPRLPRPRPRPIKFPRP was run?
Answer: -0.0529

Question: Which “shrunken log2 fold change” value does the source give for RRIRTRPPRLPRPRPRPHATPRP here?
Answer: -0.0102

Question: With RRIRCRPPRLPRPRPRPKTSPRP as the sequence, how does the “shrunken log2 fold change” value read?
Answer: -0.179

Question: Which “shrunken log2 fold change” value does the source give for RRIRTRPPRLPRPRPRPKKTPRP here?
Answer: 0.0546

Question: For RRIRMRPPRLPRPRPRPCKNPRP, which “shrunken log2 fold change” value is on record?
Answer: 4.11

Question: Which “shrunken log2 fold change” value does the source give for RRIRMRPPRLPRPRPRPGNAPRP here?
Answer: 0.573

Question: For RRIRPRPPRLPRPRPRPTGVPRP, which “shrunken log2 fold change” value is on record?
Answer: 0.0313

Question: For RRIRWRPPRLPRPRPRPWYCPRP, which “shrunken log2 fold change” value is on record?
Answer: 0.0408

Question: How did the “shrunken log2 fold change” value turn out when RRIRYRPPRLPRPRPRPEGWPRP was run?
Answer: 0.489

Question: With RRIRFRPPRLPRPRPRPDNMPRP as the sequence, how does the “shrunken log2 fold change” value read?
Answer: -0.748

Question: With RRIRNRPPRLPRPRPRPTSCPRP as the sequence, how does the “shrunken log2 fold change” value read?
Answer: -0.173

Question: With RRIRERPPRLPRPRPRPNTEPRP as the sequence, how does the “shrunken log2 fold change” value read?
Answer: 0.0956

Question: With RRIRKRPPRLPRPRPRPECDPRP as the sequence, how does the “shrunken log2 fold change” value read?
Answer: 3.35

Question: How did the “shrunken log2 fold change” value turn out when RRIRKRPPRLPRPRPRPDAIPRP was run?
Answer: 0.889

Question: With RRIRHRPPRLPRPRPRPRWRPRP as the sequence, how does the “shrunken log2 fold change” value read?
Answer: 0.355

Question: With RRIRVRPPRLPRPRPRPKGPPRP as the sequence, how does the “shrunken log2 fold change” value read?
Answer: 0.36

Question: Which “shrunken log2 fold change” value does the source give for RRIRPRPPRLPRPRPRPVYMPRP here?
Answer: -1.1

Question: How did the “shrunken log2 fold change” value turn out when RRIRSRPPRLPRPRPRPKFKPRP was run?
Answer: -0.121

Question: Which “shrunken log2 fold change” value does the source give for RRIRARPPRLPRPRPRPTIAPRP here?
Answer: 0.687

Question: With RRIRYRPPRLPRPRPRPNGLPRP as the sequence, how does the “shrunken log2 fold change” value read?
Answer: -0.0845

Question: With RRIRSRPPRLPRPRPRPPCGPRP as the sequence, how does the “shrunken log2 fold change” value read?
Answer: 0.182

Question: Which “shrunken log2 fold change” value does the source give for RRIRERPPRLPRPRPRPQTCPRP here?
Answer: -0.0436

Question: With RRIRFRPPRLPRPRPRPNHPPRP as the sequence, how does the “shrunken log2 fold change” value read?
Answer: -0.84

Question: RRIRYRPPRLPRPRPRPRGDPRP was tested. Which “shrunken log2 fold change” value did it give?
Answer: 0.316

Question: For RRIRWRPPRLPRPRPRPSICPRP, which “shrunken log2 fold change” value is on record?
Answer: -0.0271

Question: RRIRTRPPRLPRPRPRPKCAPRP was tested. Which “shrunken log2 fold change” value did it give?
Answer: 0.909

Question: For RRIRERPPRLPRPRPRPLRCPRP, which “shrunken log2 fold change” value is on record?
Answer: 0.187

Question: How did the “shrunken log2 fold change” value turn out when RRIRARPPRLPRPRPRPVVEPRP was run?
Answer: 0.322

Question: RRIRIRPPRLPRPRPRPRMEPRP was tested. Which “shrunken log2 fold change” value did it give?
Answer: -0.00396

Question: With RRIRSRPPRLPRPRPRPHWFPRP as the sequence, how does the “shrunken log2 fold change” value read?
Answer: -0.0389

Question: How did the “shrunken log2 fold change” value turn out when RRIRKRPPRLPRPRPRPPKSPRP was run?
Answer: 0.462

Question: With RRIRDRPPRLPRPRPRPLHKPRP as the sequence, how does the “shrunken log2 fold change” value read?
Answer: 0.0824

Question: Which “shrunken log2 fold change” value does the source give for RRIRERPPRLPRPRPRPQERPRP here?
Answer: 0.061

Question: For RRIRRRPPRLPRPRPRPTYCPRP, which “shrunken log2 fold change” value is on record?
Answer: -0.0567

Question: With RRIRYRPPRLPRPRPRPPRDPRP as the sequence, how does the “shrunken log2 fold change” value read?
Answer: 0.102

Question: For RRIRWRPPRLPRPRPRPFLWPRP, which “shrunken log2 fold change” value is on record?
Answer: 0.0802

Question: Which “shrunken log2 fold change” value does the source give for RRIRMRPPRLPRPRPRPVRHPRP here?
Answer: 0.237

Question: Which “shrunken log2 fold change” value does the source give for RRIRNRPPRLPRPRPRPKIYPRP here?
Answer: -0.0429

Question: With RRIRTRPPRLPRPRPRPAAPPRP as the sequence, how does the “shrunken log2 fold change” value read?
Answer: 0.275

Question: How did the “shrunken log2 fold change” value turn out when RRIRRRPPRLPRPRPRPKQNPRP was run?
Answer: 0.631

Question: With RRIRYRPPRLPRPRPRPGYFPRP as the sequence, how does the “shrunken log2 fold change” value read?
Answer: -0.624

Question: For RRIRNRPPRLPRPRPRPRAMPRP, which “shrunken log2 fold change” value is on record?
Answer: 0.37

Question: How did the “shrunken log2 fold change” value turn out when RRIRSRPPRLPRPRPRPEYIPRP was run?
Answer: -0.0603

Question: RRIRIRPPRLPRPRPRPSQMPRP was tested. Which “shrunken log2 fold change” value did it give?
Answer: -0.0716

Question: Which “shrunken log2 fold change” value does the source give for RRIRERPPRLPRPRPRPSQCPRP here?
Answer: -0.0684

Question: With RRIRARPPRLPRPRPRPWPVPRP as the sequence, how does the “shrunken log2 fold change” value read?
Answer: 0.558

Question: RRIRDRPPRLPRPRPRPNEDPRP was tested. Which “shrunken log2 fold change” value did it give?
Answer: 0.00355

Question: Which “shrunken log2 fold change” value does the source give for RRIRERPPRLPRPRPRPQEQPRP here?
Answer: -0.0202

Question: RRIRSRPPRLPRPRPRPKILPRP was tested. Which “shrunken log2 fold change” value did it give?
Answer: -0.112

Question: RRIRCRPPRLPRPRPRPPDFPRP was tested. Which “shrunken log2 fold change” value did it give?
Answer: -0.00542

Question: With RRIRERPPRLPRPRPRPLDYPRP as the sequence, how does the “shrunken log2 fold change” value read?
Answer: -0.163

Question: RRIRERPPRLPRPRPRPLPRPRP was tested. Which “shrunken log2 fold change” value did it give?
Answer: 0.179

Question: For RRIRGRPPRLPRPRPRPGKSPRP, which “shrunken log2 fold change” value is on record?
Answer: 0.176

Question: RRIRFRPPRLPRPRPRPSSTPRP was tested. Which “shrunken log2 fold change” value did it give?
Answer: -0.325

Question: How did the “shrunken log2 fold change” value turn out when RRIRVRPPRLPRPRPRPYPHPRP was run?
Answer: -0.342

Question: RRIRKRPPRLPRPRPRPPYFPRP was tested. Which “shrunken log2 fold change” value did it give?
Answer: -0.101

Question: RRIRARPPRLPRPRPRPGQPPRP was tested. Which “shrunken log2 fold change” value did it give?
Answer: 0.00358

Question: RRIRRRPPRLPRPRPRPEYHPRP was tested. Which “shrunken log2 fold change” value did it give?
Answer: 0.311

Question: How did the “shrunken log2 fold change” value turn out when RRIRTRPPRLPRPRPRPCMMPRP was run?
Answer: -0.52

Question: Which “shrunken log2 fold change” value does the source give for RRIRYRPPRLPRPRPRPEMSPRP here?
Answer: -0.343

Question: With RRIRCRPPRLPRPRPRPAMSPRP as the sequence, how does the “shrunken log2 fold change” value read?
Answer: 0.0552

Question: For RRIRQRPPRLPRPRPRPMNQPRP, which “shrunken log2 fold change” value is on record?
Answer: -0.437

Question: RRIRYRPPRLPRPRPRPNMVPRP was tested. Which “shrunken log2 fold change” value did it give?
Answer: -0.0169

Question: With RRIRNRPPRLPRPRPRPWTHPRP as the sequence, how does the “shrunken log2 fold change” value read?
Answer: -0.0174

Question: RRIRNRPPRLPRPRPRPAKGPRP was tested. Which “shrunken log2 fold change” value did it give?
Answer: -0.051
